In patent publication US20040146896A1, “Methods and compositions for diagnosing and treating companion animal cancer” (priority 2002, published 2004):

Legend:
Type in all cases: cell-based
U937 human tumor cells [1] = assay: Cell Death Detection ELISA apoptosis assay, U937
Protocol: 4. Cell Death Detection ELISA Plus assay for apoptosis. The assay is based on a quantitative sandwich-enzyme-immunoassay-principle using mouse monoclonal antibodies directed against DNA and histones, respectively. This allows the specific determination of mono- and oligonucleosomes in the cytoplasmatic fraction of cell lysates. Roche kit, Cat. # 1 774 425, was used for this assay. 0.1 ml of U937 or any other types of cells (2×104 ) and 0.1 ml of tissue culture supernatant or other solutions containing apoptosis inducing agents (e.g. TRAIL) were used for this assay in 48-well plate. After 24 or 48 hrs of incubation at 3 7° C., the cells were spun at 2,000 rpm for 10 minutes. Cell pellet was then resuspended in 200 ul lysis buffer and incubated for 30 minutes at room temperature. The cell lysate was then centrifuged at 2,000 rpm for 10 minutes and diluted at 1:10 with incubation buffer. 20 ul of diluted lysate was added to coated plate (MTP from kit) and 80 ul of the immunoreagent was added to each well. MTP was then covered with adhesive cover foil and incubated under gentle shaking for 2 hours at room temperature. The solution was then removed thoroughly by tapping and subsequently rinsed 3 times with 250 ul incubation buffer. 100 ul ABTS solution was added and incubated on a plate shaker at 250 rpm for 15 minutes. Readings at 405 nm and 490 nm (background) were done on ELISA reader. […]

U937 human tumor cells [2] = assay: Annexin V FACS apoptosis assay, U937
Description: 5. Annexin V apoptosis assay. ApoScreen Annexin V Apoptosis Kit (Cat. No. 10010-02, Southern Biotechnology Assoc. Inc.) was used for this assay. Annexin V detects the change in position of phosphatidy serine (PS) in the cell membrane. In non-apoptotic cells, most phosphatidyl serine molecules are at the inner layer of the plasma membrane. After inducing apoptosis, PS redistributes to the outer layer of the membrane. PS translocation precedes other apoptotic events allowing early detection of apoptosis. 1 ml of U937 cells (2×10^4) or any other types of cells and 1 ml of supernatant or other solutions containing apoptosis inducing agents (e.g. TRAIL) were used for assay in 6-well plate. After 48 hrs of incubation, cells were washed in 2 ml of cold PBS (Phosphate-buffered saline) and resuspended in 100 ul of cold 1× binding buffer. 10 ul of Annexin V-FITC was added to each tube and the tube was gently vortexed and subsequently incubated for 15 minutes in the dark at 4° C. 200 ul of cold 1× binding buffer was added to each tube and 10 ul-of PI was also added to each tube. The staining was then analyzed by flow cytometry.
U937 human tumor cells were grown in the presence or absence of TRAIL proteins produced from conditioned media of transfected 293 cells. The apoptosis of U937 cells induced by conditioned media was measured in this assay. […]

canine cell lines = assay: Cell Death ELISA apoptosis assay, canine cell lines; conditions: 100 ng/ml (FIG. 20B and data not shown)
Protocol: 4. Cell Death Detection ELISA Plus assay for apoptosis. The assay is based on a quantitative sandwich-enzyme-immunoassay-principle using mouse monoclonal antibodies directed against DNA and histones, respectively. This allows the specific determination of mono- and oligonucleosomes in the cytoplasmatic fraction of cell lysates. Roche kit, Cat. # 1 774 425, was used for this assay. 0.1 ml of U937 or any other types of cells (2×104 ) and 0.1 ml of tissue culture supernatant or other solutions containing apoptosis inducing agents (e.g. TRAIL) were used for this assay in 48-well plate. After 24 or 48 hrs of incubation at 3 7° C., the cells were spun at 2,000 rpm for 10 minutes. Cell pellet was then resuspended in 200 ul lysis buffer and incubated for 30 minutes at room temperature. The cell lysate was then centrifuged at 2,000 rpm for 10 minutes and diluted at 1:10 with incubation buffer. 20 ul of diluted lysate was added to coated plate (MTP from kit) and 80 ul of the immunoreagent was added to each well. MTP was then covered with adhesive cover foil and incubated under gentle shaking for 2 hours at room temperature. The solution was then removed thoroughly by tapping and subsequently rinsed 3 times with 250 ul incubation buffer. 100 ul ABTS solution was added and incubated on a plate shaker at 250 rpm for 15 minutes. Readings at 405 nm and 490 nm (background) were done on ELISA reader.

B1: human commercial TRAIL: human TRAIL (Upstate Biotechnology, 100 ng/ml), positive control (protein, UniProt P50591 1-281, looked up)
Tumor necrosis factor ligand …: MAMMEVQGGPSLGQTCVLIVIFTVLLQSLCVAVTYVYFTNELKQMQDKYSKSGIACFLKEDDSYWDPNDEESMNSPCWQVKWQLRQLVRKMILRTSEETISTVQEKQQNISPLVRERGPQRVAAHITGTRGRSNTLSSPNSKNEKALGRKINSWESSRSGHSFLSNLHLRNGELVIHEKGFYYIYSQTYFRFQEEIKENTKNDKQMVQYIYKYTSYPDPILLMKSARNSCWSKDAEYGLYSIYQGGIFELKENDRIFVSVTNEHLIDMDHEASFFGAFLVG
apoptosis specific cell death of U937 cells, times that of control (U937 human tumor cells [1]; conditioned media of transfected 293 cells, two independent experiments (FIG. 9B)): 7 times that of control | induction of apoptosis of U937 cells, in words (U937 human tumor cells [1]; mammalian expressed TRAIL supernatants, commercial human TRAIL and Fas ligand 100 ng/ml (FIGS. 19B, 20B, 21B)): induced potent apoptosis | apoptosis of U937 cells (U937 human tumor cells [2]; conditioned media of transfected 293 cells, background 15-20% (FIG. 9C)): 45% | apoptosis of U937 cells (U937 human tumor cells [2]; experiment with bacteria expressed semi-purified TRAIL-Thio proteins (FIG. 12)): above 85% | effect on canine cell lines, in words (canine cell lines): very minimal
